A short description of this test: N—H insertion, aniline with ethyl diazo acetate (EDA). Format: biochemical. The settings on record: for TTn / % Yield: protein 10 uM, EDA 8.5 mM, aniline 20 mM, Na2S2O4 10 mM, 12 h; for % Yield: product 4.3. In short, it runs like this: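 Final reactions contained 10 or 20 μM P450BM3 variant, 20 mM aniline, 8.5 mM EDA and 10 mM Na2S2O4 in 0.1 M phosphate pH 8.0 under argon, with MeOH cosolvent. After 12 h at 25° C, products were extracted into cyclohexane and quantified by GC-FID against phenethyl alcohol internal standard and calibration curves from authentic standards, giving yield and TTN.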

Numbering of substitutions follows the chain as printed. In names and notes the source's numbering stands.

With hemin, where the note is “1 mol % hemin”, the “ratio of single to double insertion products” value was in the range of 3.5 to 1 and the total product yield stood at 51%.

B1: P450BM3: wild-type cytochrome P450BM3 from Bacillus megaterium (SEQ ID NO: 1) (protein, listed as Bacillus megaterium)
chain: TIKEMPQPKTFGELKNLPLLNTDKPVQALMKIADELGEIFKFEAPGRVTRYLSSQRLIKEACDESRFDKNLSQALKFVRDFAGDGLFTSWTHEKNWKKAHNILLPSFSQQAMKGYHAMMVDIAVQLVQKWERLNADEHIEVPEDMTRLTLDTIGLCGFNYRFNSFYRDQPHPFITSMVRALDEAMNKLQRANPDDPAYDENKRQFQEDIKVMNDLVDKIIADRKASGEQSDDLLTHMLNGKDPETGEPLDDENIRYQIITFLIAGHETTSGLLSFALYFLVKNPHVLQKAAEEAARVLVDPVPSYKQVKQLKYVGMVLNEALRLWPTAPAFSLYAKEDTVLGGEYPLEKGDELMVLIPQLHRDKTIWGDDVEEFRPERFENPSAIPQHAFKPFGNGQRACIGQQFALHEATLVLGMMLKHFDFEDHTNYELDIKETLTLKPEGFVVKAKSKKIPLGGIPSPSTEQSAKKVRKKAENAHNTPLLVLYGSNMGTAEGTARDLADIAMSKGFAPQVATLDSHAGNLPREGAVLIVTASYNGHPPDNAKQFVDWLDQASADEVKGVRYSVFGCGDKNWATTYQKVPAFIDETLAAKGAENIADRGEADASDDFEGTYEEWREHMWSDVAAYFNLDIENSEDNKSTLSLQFVDSAADMPLAKMHGAFSTNVVASKELQQPGSARSTRHLEIELPKEASYQEGDHLGVIPRNYEGIVNRVTARFGLDASQQIRLEAEEEKLAHLPLAKTVSVEELLQYVELQDPVTRTQLRAMAAKTVCPPHKVELEALLEKQAYKEQVLAKRLTMLELLEKYPACEMKFSEFIALLPSIRPRYYSISSSPRVDEKQASITVSVVSGEAWSGYGEYKGIASNYLAELQEGDTITCFISTPQSEFTLPKDPETPLIMVGPGTGVAPFRGFVQARKQLKEQGQSLGEAHLYFGCRSPHEDYLYQEELENAQSEGIITLHTAFSRMPNQPKTYVQHVMEQDGKKLIELLDQGAHFYICGDGSQMAPAVEATLMKSYADVHQVSEADARLWLQQLEEKGRYAKDVWAG
modifications: cytochrome P450NADPH-P-450 reductase precursor, cytochrome P450 (BM3), CYP102A1
B1 displayed a TTn of 17. The “% Yield” value (listed as BM3-WT) is 1.7%. For the same molecule, the “% Yield” value (listed as WT-BM3) is “trace amounts”.

B2: BM3-T268A: P450BM3 variant: T268A (protein, listed as Bacillus megaterium)
chain: B1 chain with T268A
modifications: cytochrome P450NADPH-P-450 reductase precursor, cytochrome P450 (BM3), CYP102A1
Regarding B2, the TTn is on record as 160 and the “% Yield” value is 16%.

B3: ABC-T268A: P450BM3 variant: T268A, C400S (protein, listed as Bacillus megaterium)
chain: B1 chain with T268A, C400S
modifications: cytochrome P450NADPH-P-450 reductase precursor, cytochrome P450 (BM3), CYP102A1
notes: P450BM3 variant: T268A, C400S
B3: the TTn came to 95 and the “% Yield” value was found to be 9.5%.

B4: ABC-CIS: BM3-CIS + C400S (protein, listed as Bacillus megaterium)
chain: TIKEMPQPKTFGELKNLPLLNTDKPVQALMKIADELGEIFKFEAPGRVTRYLSSQRLIKEACDESRFDKNLSQALKFARDFAGDGLVTSWTHEKNWKKAHNILLPSFSQQAMKGYHAMMVDIAVQLVQKWERLNADEHIEVSEDMTRLTLDTIGLCGFNYRFNSFYRDQPHPFIISMVRALDEVMNKLQRANPDDPAYDENKRQFQEDIKVMNDLVDKIIADRKARGEQSDDLLTQMLNGKDPETGEPLDDGNIRYQIITFLIAGHEATSGLLSFALYFLVKNPHVLQKVAEEAARVLVDPVPSYKQVKQLKYVGMVLNEALRLWPTAPAFSLYAKEDTVLGGEYPLEKGDEVMVLIPQLHRDKTVWGDDVEEFRPERFENPSAIPQHAFKPFGNGQRASIGQQFALHEATLVLGMMLKHFDFEDHTNYELDIKETLTLKPKGFVVKAKSKKIPLGGIPSPSTEQSAKKVRKKAENAHNTPLLVLYGSNMGTAEGTARDLADIAMSKGFAPQVATLDSHAGNLPREGAVLIVTASYNGHPPDNAKQFVDWLDQASADEVKGVRYSVFGCGDKNWATTYQKVPAFIDETLAAKGAENIADRGEADASDDFEGTYEEWREHMWSDVAAYFNLDIENSEDNKSTLSLQFVDSAADMPLAKMHGAFSTNVVASKELQQPGSARSTRHLEIELPKEASYQEGDHLGVIPRNYEGIVNRVTARFGLDASQQIRLEAEEEKLAHLPLAKTVSVEELLQYVELQDPVTRTQLRAMAAKTVCPPHKVELEALLEKQAYKEQVLAKRLTMLELLEKYPACEMKFSEFIALLPSIRPRYYSISSSPRVDEKQASITVSVVSGEAWSGYGEYKGIASNYLAELQEGDTITCFISTPQSEFTLPKDPETPLIMVGPGTGVAPFRGFVQARKQLKEQGQSLGEAHLYFGCRSPHEDYLYQEELENAQSEGIITLHTAFSRMPNQPKTYVQHVMEQDGKKLIELLDQGAHFYICGDGSQMAPAVEATLMKSYADVHQVSEADARLWLQQLEEKGRYAKDVWAG
modifications: cytochrome P450NADPH-P-450 reductase precursor, cytochrome P450 (BM3), CYP102A1
notes: BM3-CIS + C400S
Take B4: the TTn is listed as 136 and the “% Yield” value worked out at 14%.
